Results from patent publication US20110313230A1 (LUDWIG INSTITUTE FOR CANCER RESEARCH, published 2011).
Where no end group is shown, it is not given here. The star is where a group is joined. Biotin = O=C1N[C@H]2[C@H](CS[C@H]2CCCCC(=O)*)N1

Legend:
[1] = molecular target: T1, anti-idiotype antibody LMH-12; test: sandwich ELISA: plate coated with 10 µg/ml LMH-12, detection with biotinylated LMH-12 (10 µg/ml), avidin-HRP and ABTS
T1 construct: mouse IgG1 kappa

[2] = molecular target: T2, EGFR fragment 1-294 displayed on yeast (human, UniProt P00533 25-318); test: flow cytometry on yeast-displayed, c-myc-tagged EGFR fragment (native), indirect immunofluorescence
T2 construct: yeast surface display, C-terminal c-myc tag

[3] = molecular target: T3, EGFR fragment 475-621 displayed on yeast (human, UniProt P00533 499-645); test: flow cytometry on yeast-displayed, c-myc-tagged EGFR fragment (native)
T3 construct: yeast surface display, C-terminal c-myc tag

[4] = molecular target: T4, de2-7 EGFR unique junctional peptide (human); test: dot-blot immune stain
T4 construct: non-biotinylated; also called Junction Peptide
T4 peptide: LEEKKGNYVVTDH-OH

[5] = molecular target: T5, Peptide C: LEEKKGNYVVTDH(K-Biot)-OH (biotin on the added C-terminal Lys (K-Biot)); test: BIAcore, Peptide C on streptavidin chip
T5 construct: also called C-terminal biotinylated de2-7 peptide
T5 peptide: LEEKKGNYVVTDHK

[6] = molecular target: T6, EGFR fragment 1-176 displayed on yeast (human, UniProt P00533 25-200); test: flow cytometry on yeast-displayed, c-myc-tagged EGFR fragment (native); fragment printed '1-716' on the sheet, 1-176 in the text
T6 construct: yeast surface display, C-terminal c-myc tag

[7] = molecular target: T7, biotinylated de2-7 specific peptide Biotin-LEEKKGNYVVTDH (human); test: ELISA on biotinylated peptide on streptavidin plates
T7 construct: also called unique de2-7 EGFR peptide
T7 peptide: Biotin-LEEKKGNYVVTDH

B1: mAb806 (antibody, V domains shown)
VH: DVQLQESGPSLVKPSQSLSLTCTVTGYSITSDFAWNWIRQFPGNKLEWMGYISYSGNTRYNPSLKSRISITRDTSKNQFFLQLNSVTIEDTATYYCVTAGRGFPYWGQGTLVTVSA
VL: DILMTQSPSSMSVSLGDTVSITCHSSQDINSNIGWLQQRPGKSFKGLIYHGTNLDDEVPSRFSGSGSGADYSLTISSLESEDFADYYCVQYAQFPWTFGGGTKLEIKR
notes: murine IgG2b
**Q.** How did the “EC50 (read off the curve)” value [1] turn out when B1 was run?
**A.** ~0.07 µg/mL

**Q.** Does B1 bind [2]?
**A.** no binding (tested: 10 µg/ml)

**Q.** Does B1 bind [3]?
**A.** no binding (tested: 10 µg/ml)

**Q.** Does B1 bind [4]?
**A.** no binding

**Q.** Does B1 bind [5]?
**A.** no binding (tested: 100 nM)

**Q.** Does B1 bind [6]?
**A.** no binding (tested: 10 µg/ml)

**Q.** Does B1 bind [7]?
**A.** no binding
